{"source": "patent US20220146515A1", "about": "(XIAMEN INNODX BIOTECH, published 2022)", "binders": {"B1": {"name": "monoclonal antibody C9F2-2 (antibody, V domains shown)", "VH": "EVQLVESGGGLVKPGGSLKLSCAASGFAFSTYDMSWVRQTPEKRLEWVAYISPGGGATYYPDTVKGRFTISRDNAKNTLYLQMTSLKSEDTAMYYCAGRRDYYGMDYWGQGTSVTVSS", "VL": "DVVMTQTPLSLPVSLGDQASISCRSSQSLVHSNGNTYLHWYLQKPGQSPKLLIYKVSNRFSGVPDRFSGSGSGTDFTLKISRVEAEDLGVYFCSQSTHVPWTFGGGTKLEIK", "notes": "Mouse hybridoma antibody purified from ascites; the tie is indirect; also called hybridoma CCTCC NO: C2018183"}}, "experiment_in_all_cases": "competition ELISA, antibody preincubated with target, AMH-coated plate", "key": {"[1]": {"molecular_target": "T1, AMH truncated antigen 171-270aa (human)", "T1 peptide": "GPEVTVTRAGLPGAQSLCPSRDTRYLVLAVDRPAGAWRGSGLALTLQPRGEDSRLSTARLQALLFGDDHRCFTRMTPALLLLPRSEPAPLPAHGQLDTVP"}, "[2]": {"molecular_target": "T2, AMH truncated antigen 426-525aa (human)", "T2 peptide": "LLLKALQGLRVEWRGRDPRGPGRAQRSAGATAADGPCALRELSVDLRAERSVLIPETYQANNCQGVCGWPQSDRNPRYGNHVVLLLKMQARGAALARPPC"}, "[3]": {"molecular_target": "T3, AMH truncated antigen 86-185aa (human)", "T3 peptide": "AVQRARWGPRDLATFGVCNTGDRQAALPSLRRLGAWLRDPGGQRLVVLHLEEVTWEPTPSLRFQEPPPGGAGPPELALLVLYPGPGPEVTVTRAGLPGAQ"}, "[4]": {"molecular_target": "T4, AMH truncated antigen 26-85 aa (human)", "T4 peptide": "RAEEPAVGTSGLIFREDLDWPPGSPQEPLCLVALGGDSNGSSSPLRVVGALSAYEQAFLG"}, "[5]": {"molecular_target": "T5, recombinant human AMH (anti-Mullerian Hormone) (human, UniProt P03971 25-560)", "T5 construct": "range 1-560; also called AMH antigen; AMH (1-560)", "T5 sequence (looked up)": "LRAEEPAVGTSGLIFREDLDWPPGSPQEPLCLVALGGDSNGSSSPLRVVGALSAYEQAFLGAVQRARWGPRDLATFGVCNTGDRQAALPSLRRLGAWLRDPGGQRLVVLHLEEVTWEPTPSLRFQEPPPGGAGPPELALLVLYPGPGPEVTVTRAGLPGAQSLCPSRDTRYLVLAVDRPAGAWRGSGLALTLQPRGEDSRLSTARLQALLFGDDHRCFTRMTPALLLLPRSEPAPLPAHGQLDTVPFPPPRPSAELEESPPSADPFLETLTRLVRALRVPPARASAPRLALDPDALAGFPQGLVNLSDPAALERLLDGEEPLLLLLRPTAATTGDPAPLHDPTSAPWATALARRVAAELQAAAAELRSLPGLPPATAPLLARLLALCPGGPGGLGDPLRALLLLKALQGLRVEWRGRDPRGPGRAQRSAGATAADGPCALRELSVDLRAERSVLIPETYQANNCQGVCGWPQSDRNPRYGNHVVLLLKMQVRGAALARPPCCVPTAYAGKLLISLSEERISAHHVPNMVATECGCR"}, "[6]": {"molecular_target": "T6, AMH truncated antigen 461-560aa (human)", "T6 peptide": "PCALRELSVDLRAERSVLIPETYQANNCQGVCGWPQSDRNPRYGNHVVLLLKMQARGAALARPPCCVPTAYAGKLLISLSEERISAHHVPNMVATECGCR"}, "[7]": {"molecular_target": "T7, AMH truncated antigen 256-355aa (human)", "T7 peptide": "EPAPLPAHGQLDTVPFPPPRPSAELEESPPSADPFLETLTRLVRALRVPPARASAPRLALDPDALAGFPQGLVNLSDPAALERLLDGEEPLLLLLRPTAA"}, "[8]": {"molecular_target": "T8, AMH truncated antigen 341-440aa (human)", "T8 peptide": "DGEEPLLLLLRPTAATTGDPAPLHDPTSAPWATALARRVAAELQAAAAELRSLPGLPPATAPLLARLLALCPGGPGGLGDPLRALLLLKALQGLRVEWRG"}}}
{"binder": "B1", "values": [{"measurement": "percent inhibition", "setting": "[1]", "result": 0, "unit": "%"}, {"measurement": "percent inhibition", "setting": "[2]", "result": 1, "unit": "%"}, {"measurement": "percent inhibition", "setting": "[3]", "result": 2, "unit": "%"}, {"measurement": "percent inhibition", "setting": "[4]", "result": 99, "unit": "%"}, {"measurement": "percent inhibition", "setting": "[5]", "result": 92, "unit": "%"}, {"measurement": "percent inhibition", "setting": "[6]", "result": 6, "unit": "%"}, {"measurement": "percent inhibition", "setting": "[7]", "result": 1, "unit": "%"}, {"measurement": "percent inhibition", "setting": "[8]", "result": 10, "unit": "%"}]}
